Assay results taken from publication doi:10.1101/2025.06.28.662095.

Assays:
[1] = target: MtSteAΔTM (M. tuberculosis SteA truncated soluble construct, residues 12-344) (Mycobacterium tuberculosis); assay: SEC-SLS
[2] = target: MtSteAΔTM (M. tuberculosis SteA truncated soluble construct, residues 12-344) (Mycobacterium tuberculosis); assay: crystal structure

**Q.** Which results are given for “MtSteAΔTM (M. tuberculosis SteA truncated soluble construct, residues 12-344) (domain or fragment)”?
**A.** stoichiometry N [1]: 2; stoichiometry N [2]: 2
